Measurements taken from patent US20210024615A1 (LIVERPOOL SCHOOL OF TROPICAL MEDICINE, published 2021).

B1: MMR (receptor, UniProt P22897 19-1383, looked up)
chain: LLDTRQFLIYNEDHKRCVDAVSPSAVQTAACNQDAESQKFRWVSESQIMSVAFKLCLGVPSKTDWVAITLYACDSKSEFQKWECKNDTLLGIKGEDLFFNYGNRQEKNIMLYKGSGLWSRWKIYGTTDNLCSRGYEAMYTLLGNANGATCAFPFKFENKWYADCTSAGRSDGWLWCGTTTDYDTDKLFGYCPLKFEGSESLWNKDPLTSVSYQINSKSALTWHQARKSCQQQNAELLSITEIHEQTYLTGLTSSLTSGLWIGLNSLSFNSGWQWSDRSPFRYLNWLPGSPSAEPGKSCVSLNPGKNAKWENLECVQKLGYICKKGNTTLNSFVIPSESDVPTHCPSQWWPYAGHCYKIHRDEKKIQRDALTTCRKEGGDLTSIHTIEELDFIISQLGYEPNDELWIGLNDIKIQMYFEWSDGTPVTFTKWLRGEPSHENNRQEDCVVMKGKDGYWADRGCEWPLGYICKMKSRSQGPEIVEVEKGCRKGWKKHHFYCYMIGHTLSTFAEANQTCNNENAYLTTIEDRYEQAFLTSFVGLRPEKYFWTGLSDIQTKGTFQWTIEEEVRFTHWNSDMPGRKPGCVAMRTGIAGGLWDVLKCDEKAKFVCKHWAEGVTHPPKPTTTPEPKCPEDWGASSRTSLCFKLYAKGKHEKKTWFESRDFCRALGGDLASINNKEEQQTIWRLITASGSYHKLFWLGLTYGSPSEGFTWSDGSPVSYENWAYGEPNNYQNVEYCGELKGDPTMSWNDINCEHLNNWICQIQKGQTPKPEPTPAPQDNPPVTEDGWVIYKDYQYYFSKEKETMDNARAFCKRNFGDLVSIQSESEKKFLWKYVNRNDAQSAYFIGLLISLDKKFAWMDGSKVDYVSWATGEPNFANEDENCVTMYSNSGFWNDINCGYPNAFICQRHNSSINATTVMPTMPSVPSGCKEGWNFYSNKCFKIFGFMEEERKNWQEARKACIGFGGNLVSIQNEKEQAFLTYHMKDSTFSAWTGLNDVNSEHTFLWTDGRGVHYTNWGKGYPGGRRSSLSYEDADCVVIIGGASNEAGKWMDDTCDSKRGYICQTRSDPSLTNPPATIQTDGFVKYGKSSYSLMRQKFQWHEAETYCKLHNSLIASILDPYSNAFAWLQMETSNERVWIALNSNLTDNQYTWTDKWRVRYTNWAADEPKLKSACVYLDLDGYWKTAHCNESFYFLCKRSDEIPATEPPQLPGRCPESDHTAWIPFHGHCYYIESSYTRNWGQASLECLRMGSSLVSIESAAESSFLSYRVEPLKSKTNFWIGLFRNVEGTWLWINNSPVSFVNWNTGDPSGERNDCVALHASSGFWSNIHCSSYKGYICKRPKIIDAKPTHELLTTKADTRKMDPSK
B2: [change]/[change] (other)
chain: NKTHTCPPCPAPELLGGPSVFLFPPKPKDTLMISRTPEVTCVVVDVSHEDPEVKFNWYVDGVEVHNAKTKPREEQYNSTYRVVSVLTVCLQDWLNGKEYKCKVSNKALPAPIEKTISKAKGQPREPQVYTLPPSREEMTKNQVSLTCLVKGFYPSDIAVEWESNGQPENNYKTTPPVLDSDGSFFLYSKLTVDKSRWQQGNVFSCSVMHEALHNHYTQKSLSLSPGKLVLGPPLYNVSLVMSDTAGTAY
B3: Siglec-1 (receptor, UniProt Q9BZZ2 20-1641, looked up)
chain: SWGVSSPQDVQGVKGSCLLIPCIFSFPADVEVPDGITAIWYYDYSGQRQVVSHSADPKLVEARFRGRTEFMGNPEHRVCNLLLKDLQPEDSGSYNFRFEISEVNRWSDVKGTLVTVTEEPRVPTIASPVELLEGTEVDFNCSTPYVCLQEQVRLQWQGQDPARSVTFNSQKFEPTGVGHLETLHMAMSWQDHGRILRCQLSVANHRAQSEIHLQVKYAPKGVKILLSPSGRNILPGELVTLTCQVNSSYPAVSSIKWLKDGVRLQTKTGVLHLPQAAWSDAGVYTCQAENGVGSLVSPPISLHIFMAEVQVSPAGPILENQTVTLVCNTPNEAPSDLRYSWYKNHVLLEDAHSHTLRLHLATRADTGFYFCEVQNVHGSERSGPVSVVVNHPPLTPVLTAFLETQAGLVGILHCSVVSEPLATLVLSHGGHILASTSGDSDHSPRFSGTSGPNSLRLEIRDLEETDSGEYKCSATNSLGNATSTLDFHANAARLLISPAAEVVEGQAVTLSCRSGLSPTPDARFSWYLNGALLHEGPGSSLLLPAASSTDAGSYHCRARDGHSASGPSSPAVLTVLYPPRQPTFTTRLDLDAAGAGAGRRGLLLCRVDSDPPARLQLLHKDRVVATSLPSGGGCSTCGGCSPRMKVTKAPNLLRVEIHNPLLEEEGLYLCEASNALGNASTSATFNGQATVLAIAPSHTLQEGTEANLTCNVSREAAGSPANFSWFRNGVLWAQGPLETVTLLPVARTDAALYACRILTEAGAQLSTPVLLSVLYPPDRPKLSALLDMGQGHMALFICTVDSRPLALLALFHGEHLLATSLGPQVPSHGRFQAKAEANSLKLEVRELGLGDSGSYRCEATNVLGSSNTSLFFQVRGAWVQVSPSPELQEGQAVVLSCQVHTGVPEGTSYRWYRDGQPLQESTSATLRFAAITLTQAGAYHCQAQAPGSATTSLAAPISLHVSYAPRHVTLTTLMDTGPGRLGLLLCRVDSDPPAQLRLLHGDRLVASTLQGVGGPEGSSPRLHVAVAPNTLRLEIHGAMLEDEGVYICEASNTLGQASASADFDAQAVNVQVWPGATVREGQLVNLTCLVWTTHPAQLTYTWYQDGQQRLDAHSIPLPNVTVRDATSYRCGVGPPGRAPRLSRPITLDVLYAPRNLRLTYLLESHGGQLALVLCTVDSRPPAQLALSHAGRLLASSTAASVPNTLRLELRGPQPRDEGFYSCSARSPLGQANTSLELRLEGVRVILAPEAAVPEGAPITVTCADPAAHAPTLYTWYHNGRWLQEGPAASLSFLVATRAHAGAYSCQAQDAQGTRSSRPAALQVLYAPQDAVLSSFRDSRARSMAVIQCTVDSEPPAELALSHDGKVLATSSGVHSLASGTGHVQVARNALRLQVQDVPAGDDTYVCTAQNLLGSISTIGRLQVEGARVVAEPGLDVPEGAALNLSCRLLGGPGPVGNSTFAWFWNDRRLHAEPVPTLAFTHVARAQAGMYHCLAELPTGAAASAPVMLRVLYPPKTPTMMVFVEPEGGLRGILDCRVDSEPLASLTLHLGSRLVASSQPQGAPAEPHIHVLASPNALRVDIEALRPSDQGEYICSASNVLGSASTSTYFGVRALHRLHQFQQ

Columns and labels:
Experiment in all cases: ELISA
IgG1-Fc = target: T1, IgG1-Fc (human, UniProt P01857 104-330 = IgG part)
T1 construct: domain: Fc

Siglec-3 = Siglec-3 (UniProt P20138 18-259)
Siglec-3, sequence (P20138 18-259 limits assumed): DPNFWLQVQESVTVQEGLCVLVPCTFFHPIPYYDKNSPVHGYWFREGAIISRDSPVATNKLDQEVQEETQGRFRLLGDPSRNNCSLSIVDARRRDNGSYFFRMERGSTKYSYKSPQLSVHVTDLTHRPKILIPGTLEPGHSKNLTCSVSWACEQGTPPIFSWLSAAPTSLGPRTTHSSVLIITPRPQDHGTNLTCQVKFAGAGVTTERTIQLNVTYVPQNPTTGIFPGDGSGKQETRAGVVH

dectin-1 = target: T2, dectin-1 (UniProt Q9BXN2-2 66-201)
T2 construct: also called dec-1
T2 sequence (looked up): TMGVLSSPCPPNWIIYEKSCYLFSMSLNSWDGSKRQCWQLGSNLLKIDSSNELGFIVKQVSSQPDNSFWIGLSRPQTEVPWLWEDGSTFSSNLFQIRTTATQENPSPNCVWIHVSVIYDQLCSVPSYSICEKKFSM

dectin-2 = target: T3, dectin-2 (UniProt Q6EIG7 46-209)
T3 construct: also called dec-2
T3 sequence (looked up): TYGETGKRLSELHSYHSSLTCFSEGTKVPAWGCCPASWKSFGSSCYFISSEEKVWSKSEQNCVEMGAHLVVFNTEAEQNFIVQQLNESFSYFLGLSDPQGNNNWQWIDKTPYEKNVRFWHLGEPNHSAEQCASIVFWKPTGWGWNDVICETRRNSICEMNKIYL

tetrameric human DC-SIGN = target: T4, tetrameric human DC-SIGN (human, UniProt Q9NNX6 66-404)
T4 sequence (looked up): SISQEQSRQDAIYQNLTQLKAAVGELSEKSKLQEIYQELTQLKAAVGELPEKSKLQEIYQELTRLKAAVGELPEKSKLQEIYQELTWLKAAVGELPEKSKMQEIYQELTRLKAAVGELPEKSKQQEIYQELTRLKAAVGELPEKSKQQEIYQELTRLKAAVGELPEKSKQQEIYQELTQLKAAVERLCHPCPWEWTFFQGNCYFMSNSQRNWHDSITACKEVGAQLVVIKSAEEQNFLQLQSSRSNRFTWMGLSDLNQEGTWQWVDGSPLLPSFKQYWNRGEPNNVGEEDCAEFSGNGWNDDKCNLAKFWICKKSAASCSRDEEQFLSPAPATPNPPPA

clec-4a = target: T5, clec-4a (UniProt Q9UMR7 70-237)
T5 construct: also called DCIR
T5 sequence (looked up): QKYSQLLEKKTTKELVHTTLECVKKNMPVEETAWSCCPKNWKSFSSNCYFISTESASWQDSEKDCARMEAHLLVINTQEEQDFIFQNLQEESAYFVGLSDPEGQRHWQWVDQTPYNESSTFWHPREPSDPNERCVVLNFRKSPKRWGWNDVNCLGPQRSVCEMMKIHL

clec-4d = target: T6, clec-4d (UniProt Q8WXI8 39-215)
T6 sequence (looked up): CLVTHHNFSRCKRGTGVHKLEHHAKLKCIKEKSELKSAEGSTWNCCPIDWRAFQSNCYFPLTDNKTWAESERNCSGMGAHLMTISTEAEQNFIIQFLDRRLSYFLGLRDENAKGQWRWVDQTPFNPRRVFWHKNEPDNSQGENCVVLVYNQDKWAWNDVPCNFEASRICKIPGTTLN

MBL = MBL (UniProt P11226 21-248)
MBL, sequence (P11226 21-248 limits assumed): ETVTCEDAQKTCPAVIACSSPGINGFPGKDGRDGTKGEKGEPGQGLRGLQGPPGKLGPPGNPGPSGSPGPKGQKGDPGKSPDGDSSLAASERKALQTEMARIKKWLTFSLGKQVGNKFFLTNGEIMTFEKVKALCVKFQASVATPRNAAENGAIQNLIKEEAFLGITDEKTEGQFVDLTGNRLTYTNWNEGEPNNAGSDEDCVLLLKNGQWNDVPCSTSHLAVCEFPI

MMR = target: B1
human FcγRIIIA = human FcγRIIIA (human, UniProt P08637 17-208)
human FcγRIIIA, sequence (P08637 17-208 limits assumed): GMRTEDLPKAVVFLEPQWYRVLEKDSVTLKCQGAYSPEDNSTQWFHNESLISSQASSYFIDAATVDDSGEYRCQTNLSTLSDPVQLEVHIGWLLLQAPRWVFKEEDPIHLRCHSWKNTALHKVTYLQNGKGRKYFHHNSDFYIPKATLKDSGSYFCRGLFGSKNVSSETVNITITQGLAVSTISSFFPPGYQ

C1q = C1q (UniProt P02745 23-245; P02746 28-253; P02747 29-245)
C1q, sequence (P02745 23-245, chain 1 of 3): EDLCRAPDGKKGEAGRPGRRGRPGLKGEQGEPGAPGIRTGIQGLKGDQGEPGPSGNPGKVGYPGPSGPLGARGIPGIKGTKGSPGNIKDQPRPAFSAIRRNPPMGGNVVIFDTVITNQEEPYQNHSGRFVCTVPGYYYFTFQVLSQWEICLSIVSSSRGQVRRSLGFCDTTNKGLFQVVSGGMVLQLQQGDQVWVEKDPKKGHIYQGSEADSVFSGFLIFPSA
C1q, sequence (P02746 28-253, chain 2 of 3): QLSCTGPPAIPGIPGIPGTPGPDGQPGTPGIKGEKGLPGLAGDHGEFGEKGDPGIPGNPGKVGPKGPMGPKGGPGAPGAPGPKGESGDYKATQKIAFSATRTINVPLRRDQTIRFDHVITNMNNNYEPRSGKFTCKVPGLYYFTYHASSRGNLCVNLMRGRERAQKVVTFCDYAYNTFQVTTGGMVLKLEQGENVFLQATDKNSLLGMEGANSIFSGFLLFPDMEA
C1q, sequence (P02747 29-245, chain 3 of 3): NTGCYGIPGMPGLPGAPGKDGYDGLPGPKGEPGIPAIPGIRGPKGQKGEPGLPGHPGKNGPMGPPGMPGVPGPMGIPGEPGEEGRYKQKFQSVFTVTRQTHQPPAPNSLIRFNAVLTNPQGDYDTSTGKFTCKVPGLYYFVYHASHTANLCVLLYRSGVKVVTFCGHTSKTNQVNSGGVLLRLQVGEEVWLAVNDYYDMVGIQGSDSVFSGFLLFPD

Measured: binding result

B1
no binding: IgG1-Fc

B2
not listed: IgG1-Fc
no binding: all other assays above

B3
no binding: IgG1-Fc
